The values below come from paper PMC4992955, “Pichia pastoris Fep1 is a [2Fe-2S] protein with a Zn finger that displays an unusual oxygen-dependent role in cluster binding”.

Series [1] addresses Flag-Fep1 (1–208) WT (Pichia pastoris). Kind of series: SEC; analytical gel-filtration on Superdex-75 (10/300) in 25 mM MOPS pH 7, 150 mM NaCl; calibrated with conalbumin, ovalbumin, carbonic anhydrase and RNase A.
The target is the same in series [2]. Kind of series: SAXS; solution SAXS at ESRF beamline BM29, 293 K, three dilutions of each sample; as-purified and after reconstitution of the [2Fe-2S] cluster; molecular weights from ab initio calculation with ATSAS.
For the next series, the target named is T1, MBP-Fep1 (41-192) WT (Pichia pastoris (GS115), UniProt A4VAR6 41-192).
T1 sequence: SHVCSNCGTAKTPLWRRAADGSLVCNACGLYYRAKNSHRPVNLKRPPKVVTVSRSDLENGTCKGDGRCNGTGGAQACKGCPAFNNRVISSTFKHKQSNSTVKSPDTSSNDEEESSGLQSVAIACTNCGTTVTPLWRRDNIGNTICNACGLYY
Kind of series: EMSA; 5 uM ZnSO4, 5 uM FeCl3; 12.5 mM Hepes pH 7.9, 75 mM NaCl, 4 mM MgCl2, 1 mM EDTA, 10% glycerol, 4 mM Tris-HCl pH 7.9, 0.6 mM DTT, 1 ug poly(dI-dC)2, 5 uM ZnSO4, 5 uM FeCl3; 100-250 ng protein, 1 ng probe, 20 min at 25 C; 6% native gel at 4 C. To be noted: protein: recombinant; tags: MBP fusion; label: 32P end-label (alpha-32P); 5' overhangs: 4 nt on S3, 3 nt on S4 as printed; 32 bp duplex. On the technique in general: Mobility shift assays separate free from complexed probe on a gel.

The stoichiometry N is the number of molecules, sites or subunits per partner or assembly.

As to “Flag-Fep1 (1–208) WT (domain or fragment)”, the stoichiometry N in series [1] and in series [2] was 2 throughout.

B1: fetgata2/fetgata1 (FET3 promoter GATA probe) (dsDNA)
DNA 1: GGCGATTGAACTGATAATTTTACTAAATAAGTGGAA
DNA 2: GGATTCCACTTATTTAGTAAAATTATCAGTTCAAT
On to B1, for which the binding result with MBP-Fep1 (41-192) WT is listed as “binds”.
